The values below come from paper PMC6882888, “Two-tiered enforcement of high-fidelity DNA ligation”.

The target of series [1] is T1, LIG1 WT (Homo sapiens, UniProt P18858 262-904). As to the kind of experiment: X-ray crystallography (2.05 A); 200 mM Mg2+ in cryoprotectant, 1 mM ATP; AMP-DNA intermediate; 4 Mg2+ sites; Crystals: complex in 150 mM NaCl, 20 mM Tris-Cl pH 7.5, 1 mM TCEP, 1 mM ATP mixed 1:1 with 100 mM MES pH 6, 100 mM lithium acetate, 15% PEG3350; ligation/trapping: 50 mM NaMOPS pH 7.5, 1 mM DTT, 0.05 mg/mL BSA, ionic strength 150 mM (NaCl), 37 C. To be noted: protein: recombinant; tags: His-tag removed by TEV; nicked duplex, 11mer + 7mer on 18mer template, blunt ends.

Series [2] concerns the target T2, LIG1 E346A/E592A (EE/AA) (Homo sapiens, UniProt P18858 262-904, E346A;E592A). The series is described as follows: X-ray crystallography (2.20 A); 200 mM Mg2+ in cryoprotectant, 1 mM ATP; Crystals: complex in 150 mM NaCl, 20 mM Tris-Cl pH 7.5, 1 mM TCEP, 1 mM ATP mixed 1:1 with 100 mM MES pH 6, 100 mM lithium acetate, 15% PEG3350; ligation/trapping: 50 mM NaMOPS pH 7.5, 1 mM DTT, 0.05 mg/mL BSA, ionic strength 150 mM (NaCl), 37 C. To be noted: protein: recombinant; tags: His-tag removed by TEV; nicked duplex, 11mer + 7mer on 18mer template, blunt ends.

A further series has as its target LIG1 E592R (Homo sapiens, UniProt P18858 262-904, E592R). As to the kind of experiment: X-ray crystallography (1.85 A); 2 mM EDTA in cryoprotectant, 1 mM ATP; Crystals: complex in 150 mM NaCl, 20 mM Tris-Cl pH 7.5, 1 mM TCEP, 1 mM ATP mixed 1:1 with 100 mM MES pH 6, 100 mM lithium acetate, 15% PEG3350; ligation/trapping: 50 mM NaMOPS pH 7.5, 1 mM DTT, 0.05 mg/mL BSA, ionic strength 150 mM (NaCl), 37 C. To be noted: protein: recombinant; tags: His-tag removed by TEV; nicked duplex, 11mer + 7mer on 18mer template, blunt ends.

Series [3] addresses T1, LIG1 WT. The series is described as follows: X-ray crystallography (1.55 A); 2 mM EDTA in cryoprotectant, 1 mM ATP; Crystals: complex in 150 mM NaCl, 20 mM Tris-Cl pH 7.5, 1 mM TCEP, 1 mM ATP mixed 1:1 with 100 mM MES pH 6, 100 mM lithium acetate, 15% PEG3350; ligation/trapping: 50 mM NaMOPS pH 7.5, 1 mM DTT, 0.05 mg/mL BSA, ionic strength 150 mM (NaCl), 37 C. As to conditions: protein: recombinant; tags: His-tag removed by TEV; nicked duplex, 11mer + 7mer on 18mer template, blunt ends.

Series [4] deals with T2, LIG1 E346A/E592A (EE/AA). The series is described as follows: X-ray crystallography (1.75 A); 2 mM EDTA in cryoprotectant, 1 mM ATP; 5'-adenylylated; Crystals: complex in 150 mM NaCl, 20 mM Tris-Cl pH 7.5, 1 mM TCEP, 1 mM ATP mixed 1:1 with 100 mM MES pH 6, 100 mM lithium acetate, 15% PEG3350; ligation/trapping: 50 mM NaMOPS pH 7.5, 1 mM DTT, 0.05 mg/mL BSA, ionic strength 150 mM (NaCl), 37 C. As to conditions: protein: recombinant; tags: His-tag removed by TEV; nicked duplex, 11mer + 7mer on 18mer template, blunt ends.

Series [5] has as its target T2, LIG1 E346A/E592A (EE/AA). As to the kind of experiment: X-ray crystallography (1.85 A); 2 mM EDTA in cryoprotectant, 1 mM ATP; 5'-adenylylated; Crystals: complex in 150 mM NaCl, 20 mM Tris-Cl pH 7.5, 1 mM TCEP, 1 mM ATP mixed 1:1 with 100 mM MES pH 6, 100 mM lithium acetate, 15% PEG3350; ligation/trapping: 50 mM NaMOPS pH 7.5, 1 mM DTT, 0.05 mg/mL BSA, ionic strength 150 mM (NaCl), 37 C. To be noted: protein: recombinant; tags: His-tag removed by TEV; nicked duplex, 11mer + 7mer on 18mer template, blunt ends, 8oxoG:A Hoogsteen pair at nick.

T2 sequence (P18858 262-904 E346A/E592A): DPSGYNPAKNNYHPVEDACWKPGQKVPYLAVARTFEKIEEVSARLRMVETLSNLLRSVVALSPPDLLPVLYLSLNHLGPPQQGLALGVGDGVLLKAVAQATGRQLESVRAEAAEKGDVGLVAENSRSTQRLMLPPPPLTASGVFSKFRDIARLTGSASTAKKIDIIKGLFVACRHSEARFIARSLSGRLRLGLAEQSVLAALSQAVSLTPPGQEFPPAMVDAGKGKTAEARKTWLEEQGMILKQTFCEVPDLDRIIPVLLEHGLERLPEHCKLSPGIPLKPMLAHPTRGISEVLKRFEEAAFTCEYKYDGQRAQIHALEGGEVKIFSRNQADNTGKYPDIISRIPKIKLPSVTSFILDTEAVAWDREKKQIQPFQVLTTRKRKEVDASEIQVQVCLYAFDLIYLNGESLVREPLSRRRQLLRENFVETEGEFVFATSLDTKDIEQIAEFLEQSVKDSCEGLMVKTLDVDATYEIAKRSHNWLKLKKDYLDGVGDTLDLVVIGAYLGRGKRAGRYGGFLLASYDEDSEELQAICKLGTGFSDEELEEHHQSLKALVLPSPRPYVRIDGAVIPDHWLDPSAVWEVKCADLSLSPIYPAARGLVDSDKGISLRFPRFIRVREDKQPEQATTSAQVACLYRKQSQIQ
T1 sequence (P18858 262-904): as the sequence (P18858 262-904 E346A/E592A) above, with A85E, A331E counted along it
Sequence of LIG1 E592R (P18858 262-904 E592R): as the sequence (P18858 262-904 E346A/E592A) above, with A85E, A331R counted along it

B1: nicked 18mer 3'ddC (oligos 1,2,3) (dsDNA)
DNA 1: GTCCGACGACGCATCAGC
DNA 2: GCTGATGCGTC
DNA 3: GTCGGAC
modifications: 3'-terminal C of 11mer is ddC; 5' phosphate on 7mer, 5'-adenylylated in the complex
As to B1, the binding result in the series with LIG1 WT [1] and with LIG1 E346A/E592A (EE/AA) [2] was “binds” each time.

B2: nicked 18mer 3'OH (oligos 1,3,4) (dsDNA)
DNA 1: GTCCGACGACGCATCAGC
DNA 2: GCTGATGCGTC
DNA 3: GTCGGAC
modifications: 5' phosphate on 7mer, 5'-adenylylated in the crystal
For B2, the binding result with LIG1 E592R, with LIG1 WT [3] and with LIG1 E346A/E592A (EE/AA) [4] was “binds” each time.

B3: nicked 18mer 3'-8oxoG:A (oligos 3,5,6) (dsDNA)
DNA 1: GTCCGACAACGCATCAGC
DNA 2: GCTGATGCGTG
DNA 3: GTCGGAC
modifications: 3'-terminal G of 11mer is 8oxoG (opposite A); 5' phosphate on 7mer, 5'-adenylylated in the crystal
For the molecule B3, the binding result in the series with LIG1 E346A/E592A (EE/AA) [5] is “binds”.
